Assay results reported in patent US20160201045A1, “Endo-xylanase and Coding Gene and Use Thereof” (SHANGHAI INSTITUTES FOR BIOLOGICAL SCIENCES CHINESE ACADEMY …, priority 2013, published 2016).

Key:
Assay type in all cases: biochemical
[1] = Detection on temperature tolerance
Experimental: (§1) In a 100 μl reaction system, birch xylan was added to a final concentration of 1% (w/w), and Na2HPO4/NaH2PO4 buffer (pH7.0) was added to a final concentration of 100 mM. A suitable amount of enzyme solution diluted by the abovementioned buffer was added to the reaction system for reaction at 50[…] for 10 minutes. 100 μl DNS were added to stop the reaction. For the control, 100 μl DNS were firstly added to the above reaction system before adding the enzyme solution. The reaction mixtures were subjected to a boiled water bath for 5 minutes to develop color. Absorbance value at 540 nm was detected by a microplate reader. After subtracting the absorbance value of the control from that of the sample, the enzymatic activity unit (U) was calculated based on the standard curve.
The Xyl7 enzyme solution was stored in a buffer having an optimum pH 7.0 at different temperatures (55° C., 50° C., 45° C.) or at 50° C. with addition of 70 mM mercaptoethan for different times (15 min, 30 min, 45 min, 60 min, 75 min). Enzymatic activity was tested according to the above standard enzymatic activity detection steps (enzymatic activity was tested after reacting at pH7.0, 50° C. for 10 minutes). The enzyme solution which was not subjected to heat treatment was used as a control. Its specific activity tested under pH 7.0, 50° C. was used as a reference value and its relative activity was defined as 100%. The relative activity of the treatment group was a ratio between the relative activity value obtained after storing at different temperatures for different times (treatment conditions) and the reference value. […] After storing at these temperatures for 45 min, the enzymatic activity decreased to be less than 50% of the maximum activity.

[2] = Residual activity under pulp bleaching conditions (alkaline pH, high temperature); settings: 50-70, pH8-9, one to two hours
Experimental: as §1, with “curve. […]” for “curve.”

[3] = Screening of mutant clones for improved thermal stability (96-well, heat treatment, DNS); settings: 52.5° C. water bath for two hours
Experimental: Transformants were picked up by sterile toothpick to a LB liquid culture containing antibiotic and IPTG (in a final concentration of 1 mM) contained within the wells of a 96-well plate and cultured overnight at 37° C. and 200 rpm. Thallus was collected by centrifugation. 100 ul buffers having the optimum reaction pH were added to re-suspend the thallus. Clone from each well was divided into a control group and a treatment group, with 50 ul for each well. The control group was stored at 4° C. The treatment group was treated in a water bath having a suitable temperature for 2 hours. After adding 2% xylan to each well, the mixture was allowed to react under 37° C. for 1 hour. Enzymatic activity was detected according to the DNS method. After treatment, the treatment group of the wild type clone retained an enzymatic activity which was about 10˜20% of its control group. […] The thermal stability of finally obtained mutants was tested according to the method described in Example 3. The overnight thallus was re-suspended and divided into two groups, which were the control and treatment groups, respectively. […] Then the enzymatic activity was detected. The residual enzymatic activity of the treatment group was calculated as a percentage of the enzymatic activity of the treatment group in relative to that of the control group. […]

[4] = pH 7.0, % of the maximum activity

B1: Xyl7: endo-1,4-β-xylanase of 505 amino acids, SEQ ID NO:2, from termite gut metagenome, expressed in E. coli with His tag (protein)
chain: MKKLIALSFIAAFFAPLFAQGPTWTTSTIQAYNGYDYELWNQNNAGTVSMKLTGDNGSGASAVGGTFTATWSNTQNVLFRSGKKWGSSSNQNHTQIGNMSINFAATWSSTDNVKMLGVYGWAYFTSANVPTKQENGTNASFSNQIEYYIIQDRGSYNPASGGTNAKKYGSATIDGIAYDFYVCDRINQPMLTGNGNFKQFFSVPQSASAHRTSGTISVSQHFNKWHELGMKMDGPLYEVAMKVESYTGSGSSNGSATVTKNLLTIGGTTPTPSSNSGGTTSSSSRASSSSRASSSSNAAVQATTCKTPLITYPTSTVPSDPYTACFKYTDDKCYVCKVENEGEFEGNMNTCGSGWVWDGTQIDNNLRDGYWYQEVPCPAGSSSSRSSSSSVAVSSSSRSSSSSVAASSSSRSSSSSASVSSSSEETPIRVLHTIPSKFRVRSLNNGALQIESNADVVLYLYDTKGKMAQKIEAPTGSSIVKLSVPAGIYIVRNVQTKEKLRVMVR
modifications: His tag; Intestinal tract metagenome of termite
effect of 70 mM mercaptoethan on loss of activity during storage ([1]; pH 7.0, 50° C., 70 mM mercaptoethan added): decrease rate of the enzymatic activity was further reduced | activity after storing at 50° C. and 45° C. for 45 min [1, 4]: less than 50% | activity after storing at 55° C. for 15 min [1, 4]: less than 50% | residual enzymatic activity at high temperature in alkaline environment [2]: retain a sufficiently high enzymatic activity | enzymatic activity of the treatment group as % of the control group [3]: 10˜20%
